T1: Fc gamma receptor RIIA H131 on CHO-K1SV cells (human, UniProt P12318 34-317)
T1 construct: whole, on cells
T1 sequence (looked up): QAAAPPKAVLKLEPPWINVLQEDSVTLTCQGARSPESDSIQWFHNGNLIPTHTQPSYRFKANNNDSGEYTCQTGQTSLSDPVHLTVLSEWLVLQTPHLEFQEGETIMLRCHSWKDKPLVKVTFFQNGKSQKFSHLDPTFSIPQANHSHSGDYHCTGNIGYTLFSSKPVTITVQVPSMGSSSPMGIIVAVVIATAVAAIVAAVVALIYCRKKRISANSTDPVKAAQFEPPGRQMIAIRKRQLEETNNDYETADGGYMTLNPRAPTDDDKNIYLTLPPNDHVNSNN

T2: Full-length Human OX40 (human, UniProt P43489 29-277)
T2 sequence: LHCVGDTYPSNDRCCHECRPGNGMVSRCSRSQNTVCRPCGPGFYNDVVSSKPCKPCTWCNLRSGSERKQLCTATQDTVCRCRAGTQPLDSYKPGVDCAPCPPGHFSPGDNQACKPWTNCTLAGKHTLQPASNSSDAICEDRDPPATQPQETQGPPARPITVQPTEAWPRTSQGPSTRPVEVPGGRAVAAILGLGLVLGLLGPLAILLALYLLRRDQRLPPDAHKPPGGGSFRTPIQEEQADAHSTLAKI


How the values were obtained:
[1] = molecular target: T3, Recombinant FcRn/b2M protein (human, UniProt P55899 24-297; P61769 21-119, limits assumed); experiment: SPR pH 6.0, FcRn/b2M immobilized, two-state reaction model
T3 construct: also called hFcRn/b2M; neonatal Fc receptor
Procedure: Recombinant FcRn/b2M protein was generated via transient transfection of HEK-293 cells with a bi-cistronic vector containing the genes for both FcRn and […]. The complex was purified using IMAC chromatography and subsequently buffer exchanged into IMAC elution buffer after verifying purity of the IMAC eluate by analytical SEC. hFcRn/b2M at 10 μg/ml in 10 mM sodium acetate (pH 4.5) was immobilized on a CM5 chip by direct amine coupling chemistry to a level of ˜600 RU. A reference flow cell was left blank.
Different concentrations of the Fc variant protein (5-80 nM by 2-fold dilutions in pH 6.0 running buffer) including running buffer as blank were injected in randomized order at 30 μL/min for 180 seconds followed by a 120 second dissociation period.
Sensorgrams obtained from kinetic SPR measurements were analyzed by the double subtraction method. The signal from the reference flow cell was subtracted from the analyte binding response obtained from flow cell with immobilized ligands. Buffer reference was subtracted from analyte binding responses, and the final double-referenced data were analyzed with Biacore T200 Evaluation software (2.0, GE), globally fitting data to derive kinetic parameters. All sensorgrams were fitted using two-state reaction model, as described in Weirong Wang et al, DrugMetab Dispos.: 39(9): 1469-77 (2011).

C1Q = molecular target: T4, C1Q (UniProt P02745 23-245; P02746 28-253; P02747 29-245); experiment: SPR, Fc captured, C1Q as analyte
T4 construct: also called complement C1Q
T4 sequence (P02745 23-245 limits assumed, chain 1 of 3): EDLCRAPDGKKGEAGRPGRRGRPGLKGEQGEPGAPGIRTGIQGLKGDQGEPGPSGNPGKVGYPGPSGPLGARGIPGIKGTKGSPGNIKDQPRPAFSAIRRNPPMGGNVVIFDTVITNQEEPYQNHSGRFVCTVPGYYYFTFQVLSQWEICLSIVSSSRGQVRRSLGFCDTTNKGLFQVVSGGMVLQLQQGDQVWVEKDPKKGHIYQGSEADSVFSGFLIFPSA
T4 sequence (P02746 28-253 limits assumed, chain 2 of 3): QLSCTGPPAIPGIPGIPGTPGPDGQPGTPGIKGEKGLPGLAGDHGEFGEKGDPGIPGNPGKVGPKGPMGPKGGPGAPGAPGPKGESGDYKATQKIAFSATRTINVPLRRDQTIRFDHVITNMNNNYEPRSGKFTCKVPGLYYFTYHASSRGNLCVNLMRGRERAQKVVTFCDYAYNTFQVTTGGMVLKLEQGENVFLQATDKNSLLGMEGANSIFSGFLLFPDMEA
T4 sequence (P02747 29-245 limits assumed, chain 3 of 3): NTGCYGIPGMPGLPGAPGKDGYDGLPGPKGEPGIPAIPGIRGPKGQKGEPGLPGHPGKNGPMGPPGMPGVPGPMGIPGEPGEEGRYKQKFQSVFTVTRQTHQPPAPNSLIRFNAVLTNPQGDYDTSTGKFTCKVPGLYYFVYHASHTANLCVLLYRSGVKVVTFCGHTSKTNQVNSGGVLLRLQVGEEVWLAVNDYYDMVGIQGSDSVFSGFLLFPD
Procedure: (§1) Fc mutations to be potentially integrated into an ADAPTIR™ bispecific construct were analyzed for binding to the common Fc receptors (human and cyno) and C1Q, which is a component of the complement activation system. SPR experiments were conducted at 25° C. in HBS-EP+ buffer on a Biacore T200 system.
(§2) For these experiments, all four flow cells of a CM5 sensor chip were immobilized with goat F(ab′)2 anti-human Fc (Jackson ImmunoResearch) to a response level of ˜4000 RU. Fc variants and wild type Fc were diluted to 100 nM in HBS-EP+ and captured on the surface of the chip for 120 seconds at a flow rate of 10 μL/min. Fcγ receptors (human and cyno, all purchased from R&D Systems) and complement (C1Q, purchased from Quidel Corporation and Complement Technology, Inc) were diluted in HBS-EP+ and then flowed as analytes at 30 μL/min for 120 seconds followed by a 120 seconds dissociation. Regeneration was achieved by flowing 10 mM glycine pH 1.7 at 30 μL/min for 30 seconds followed by a 60 seconds stabilization. Flow cell 1 was always left as a blank (no captured protein) for purposes of background signal subtraction. Blank-subtracted sensorgrams for each captured Fc variant were inspected for the presence of binding to any of the Fcγ receptor proteins or complement. There are polymorphisms in the Human Fc receptors IIA and RIIIA, so both sequences were tested for binding.

[2] = molecular target: T5, Fc gamma receptor RIIIA F158 on CHO-K1SV cells (human, UniProt P08637 17-254); experiment: flow cytometry, CHO-K1SV transfectants
T5 construct: whole, on cells
T5 sequence (P08637 17-254): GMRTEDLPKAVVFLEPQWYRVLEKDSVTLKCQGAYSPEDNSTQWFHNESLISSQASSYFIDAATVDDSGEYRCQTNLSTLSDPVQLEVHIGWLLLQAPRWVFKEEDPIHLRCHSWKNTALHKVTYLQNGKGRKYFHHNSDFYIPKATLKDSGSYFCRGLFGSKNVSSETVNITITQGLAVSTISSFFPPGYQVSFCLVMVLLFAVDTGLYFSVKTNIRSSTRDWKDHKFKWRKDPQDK
Procedure: (§3) CHO-K1SV cells stably transfected with a series of FcγR receptors were incubated with each of the […] listed in Table 23. A typical experiment labeled approximately 100,000 cells per well, in 96-well plates, with a range of binding molecule concentrations of 1 to 1000 nM, in 100 μl of PBS buffer with 0.2% BSA and 2 mM EDTA, for 30 minutes on ice, followed by washes and incubation with PE-labeled minimum cross species reactive secondary antibody, goat anti-human IgG Fcγ, F(ab′)2 ([…]) for 30 minutes to 1 hour on ice. Signal from bound molecules was detected using a LSR-II™ flow cytometer (BD Biosciences) and analyzed by FlowJo flow cytometry analysis software. Mean fluorescence intensity (MFI) of bound molecules on cells was determined after exclusion of doublets.

[3] = molecular target: T1, Fc gamma receptor RIIA H131 on CHO-K1SV …; experiment: flow cytometry, CHO-K1SV transfectants
Procedure: as §3

Fc gamma receptor RI = molecular target: T6, Fc gamma receptor RI (human, UniProt P12314 16-288); experiment: SPR, Fc captured, receptor as analyte, relative to wild type Fc
T6 construct: also called FcγRI
T6 sequence (P12314 16-288 limits assumed): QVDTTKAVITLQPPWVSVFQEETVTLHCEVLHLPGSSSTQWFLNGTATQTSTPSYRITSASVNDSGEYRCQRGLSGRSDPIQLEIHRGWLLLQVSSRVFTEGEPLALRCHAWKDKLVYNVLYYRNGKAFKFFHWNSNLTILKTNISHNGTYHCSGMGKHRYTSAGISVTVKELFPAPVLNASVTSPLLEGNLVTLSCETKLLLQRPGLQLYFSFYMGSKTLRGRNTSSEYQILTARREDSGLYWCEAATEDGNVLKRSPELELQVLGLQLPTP
Procedure: as §1, §2

[4] = molecular target: T7, Fc gamma receptor RIIIA V176 (human, UniProt P08637 17-208); experiment: as above
T7 construct: soluble SPR analyte
T7 sequence (P08637 17-208 F176V): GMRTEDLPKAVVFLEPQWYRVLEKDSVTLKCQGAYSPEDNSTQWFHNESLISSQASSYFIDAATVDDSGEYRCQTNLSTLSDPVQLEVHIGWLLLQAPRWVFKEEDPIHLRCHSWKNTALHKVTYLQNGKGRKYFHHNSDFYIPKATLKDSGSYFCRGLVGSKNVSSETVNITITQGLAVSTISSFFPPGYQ
Procedure: as §1, §2

Full-length Human 4-1BB [5] = molecular target: T8, Full-length Human 4-1BB (human, UniProt Q07011 24-255); experiment: cell-based or functional assay
T8 sequence (Q07011 24-255): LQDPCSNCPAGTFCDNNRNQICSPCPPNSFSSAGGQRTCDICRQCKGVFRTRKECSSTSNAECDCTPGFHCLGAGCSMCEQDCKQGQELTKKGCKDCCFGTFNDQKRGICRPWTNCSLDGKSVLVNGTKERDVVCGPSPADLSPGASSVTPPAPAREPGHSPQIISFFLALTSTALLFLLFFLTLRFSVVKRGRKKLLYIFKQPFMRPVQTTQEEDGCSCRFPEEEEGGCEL

Full-length Human OX40 [6] = molecular target: T2, Full-length Human OX40; experiment: cell-based or functional assay
Full-length Human OX40 [7] = molecular target: T2, Full-length Human OX40; experiment: flow cytometry, CHO cells expressing human OX40
Full-length Human 4-1BB [8] = molecular target: T8, Full-length Human 4-1BB; experiment: flow cytometry, Jurkat cells expressing human 4-1BB
Procedure: Serial dilutions of ADAPTIR™ constructs were incubated with cells transfected with human or cynomolgus ECD and subsequently labelled with a fluorescently-conjugated goat-α-human Fc secondary antibody. […] (See Example 16.)

| Kd [1] | binding result (C1Q) | binding result [2] | binding result [3] | binding result (Fc gamma receptor RI) | binding result [4] | 4-1BB Reporter Assay EC50 (Full-length Human 4-1BB [5]) | 4-1BB Reporter Assay Max induction (Full-length Human 4-1BB [5]) | OX40 Reporter Assay EC50 (Full-length Human OX40 [6]) | OX40 Reporter Assay Max induction (Full-length Human OX40 [6]) | EC50 (Full-length Human OX40 [7]) | EC50 (Full-length Human 4-1BB [8]) | Max MFI (Full-length Human 4-1BB [8]) | Binder |
| --- | --- | --- | --- | --- | --- | --- | --- | --- | --- | --- | --- | --- | --- |
| 20 nM | no binding | no binding (tested: 1 to 1000 nM) | no binding (tested: 1 to 1000 nM) | binds | binds | – | – | – | – | – | – | – | TSC 1005 (other, IgG1 Fc with E233P, L234V, L235A, deletion of G236, G237A, K322A (EU); also called PVAdel TSC01005) EPKSSDKTHTCPPCPAPPVAAPSVFLFPPKPKDTLMISRTPEVTCVVVDVSHEDPEVKFNWYVDGVEVHNAKTKPREEQYNSTYRVVSVLTVLHQDWLNGKEYKCAVSNKALPAPIEKTISKAKGQPREPQVYTLPPSRDELTKNQVSLTCLVKGFYPSDIAVEWESNGQPENNYKTTPPVLDSDGSFFLYSKLTVDKSRWQQGNVFSCSVMHEALHNHYTQKSLSLSPG |
| – | – | – | – | – | – | 0.019 nM | 6.1e+06 | 0.012 nM | 534000 | 0.57 nM | 0.27 nM | 4540 MFI | FXX01066 (bispecific antibody, ADAPTIR scFv-Fc-scFv, anti-4-1BB (VH-VL) N-terminal, anti-OX40 C-terminal, PAA (del) Fc; also called FX01066) EVQLVQSGAEVKKPGASVKVSCKASGYTFTSYWMNWVRQAPGQGLEWMGNIYPSGGSTNYAQKFQGRVTMTVDTSTSTVYMELSSLRSEDTAVYYCASFSDGYYAYAMDYWGQGTLVTVSSGGGGSGGGGSGGGGSGGGGSEIVMTQSPATLSLSPGERATLSCRASQSVSSYLNWYQQKPGQAPRLLIYYASRRHTGIPARFSGSGSGTDFTLTISSLQPEDFAVYYCQQGYNLPYTFGQGTKVEIKEPKSSDKTHTCPPCPAPPAAAPSVFLFPPKPKDTLMISRTPEVTCVVVDVSHEDPEVKFNWYVDGVEVHNAKTKPREEQYNSTYRVVSVLTVLHQDWLNGKEYKCAVSNKALPAPIEKTISKAKGQPREPQVYTLPPSRDELTKNQVSLTCLVKGFYPSDIAVEWESNGQPENNYKTTPPVLDSDGSFFLYSKLTVDKSRWQQGNVFSCSVMHEALHNHYTQKSLSLSPGGGGSPSSYVLTQPPSVSVAPGQTARITCGGNNIGSKSVNWFQQKPGQAPVLVVYDDSGRPSGIPERFSGSTSGNTATLTISRVEAGDEADYYCQVWDSSSDHVVFGGGTKLTVLGGGGSGGGGSGGGGSGGGGSQVQLVESGGGVVQPGRSLRLSCAASGFTLSYYGMHWVRQAPGKGLEWVAAISHDGSDKYYADSVKGRFTISRDNSKNTLYLQMNSLRAEDTAVYYCSNDQFDPWGQGTLVTVSSR |
